What is called Kd is the constant that tells how readily two partners part at equilibrium. For orientation: stoichiometry N means a count of units in the complex or per binding partner.

We go through 4 molecules from publication PMC10115629, “Structural basis for GSDMB pore formation and its targeting by IpaH7.8” (Nature, 2023).

B2: human GSDMB isoform 1 construct for cryo-EM, 3C protease site inserted after K239 (uncleaved, full length) (natural protein)
chain: MFSVFEEITRIVVKEMDAGGDMIAVRSLVDADRFRCFHLVGEKRTFFGCRHYTTGLTLMDILDTDGDKWLDELDSGLQGQKAEFQILDNVDSTGELIVRLPKEITISGSFQGFHHQKIKISENRISQQYLATLENRKLKRELPFSFRSINTRENLYLVTETLETVKEETLKSDRQYKFWSQISQGHLSYKHKGQREVTIPPNRVLSYRVKQLVFPNKETMSAGLDIHFRGKTKSFPEGKLEVLFQGPSLGSEDSRNMKEKLEDMESVLKDLTEEKRKDVLNSLAKCLGKEDIRQDLEQRVSEVLISGELHMEDPDKPLLSSLFNAAGVLVEARAKAILDFLDALLELSEEQQFVAEALEKGTLPLLKDQVKSVMEQNWDELASSPPDMDYDPEARILCALYVVVSILLELAEGPTSVSS
notes: human gasdermin B isoform 1 (Q8TAX9-1), full length, with a human rhinovirus 3C protease site (LEVLFQ/GP) inserted after residue K239; The methods say the 3C site is in 'the GSDMB construct used for cryo-EM structural determination'; source: E. coli BL21 (DE3), co-expressed with IpaH7.8, complex purified (Ni-NTA, Hitrap Q, Superdex 200); not shown: His6-SUMO, N-terminal, cleaved
B3: Shigella flexneri IpaH7.8 without affinity tag (co-expressed with GSDMB) (enzyme)
chain: MFSVNNTHSSVSCSPSINSNSTSNEHYLRILTEWEKNSSPGEERGIAFNRLSQCFQNQEAVLNLSDLNLTSLPELPKHISALIVENNKLTSLPKLPAFLKELNADNNRLSVIPELPESLTTLSVRSNQLENLPVLPNHLTSLFVENNRLYNLPALPEKLKFLHVYYNRLTTLPDLPDKLEILCAQRNNLVTFPQFSDRNNIRQKEYYFHFNQITTLPESFSQLDSSYRINISGNPLSTRVLQSLQRLTSSPDYHGPQIYFSMSDGQQNTLHRPLADAVTAWFPENKQSDVSQIWHAFEHEEHANTFSAFLDRLSDTVSARNTSGFREQVAAWLEKLSASAELRQQSFAVAADATESCEDRVALTWNNLRKTLLVHQASEGLFDNDTGALLSLGREMFRLEILEDIARDKVRTLHFVDEIEVYLAFQTMLAEKLQLSTAVKEMRFYGVSGVTANDLRTAEAMVRSREENEFTDWFSLWGPWHAVLKRTEADRWAQAEEQKYEMLENEYSQRVADRLKASGLSGDADAEREAGAQVMRETEQQIYRQLTDEVLALRLSENGSRLHHS
notes: only the LRR domain is visible in the map; source: E. coli BL21 (DE3), co-expressed with His6-SUMO-GSDMB, complex purified (Ni-NTA, Hitrap Q, Superdex 200)

In data set [1] the target is human GSDMB (isoform 1, Q8TAX9-1), full length (human). As to the kind of experiment: ITC; VP-ITC, 20 °C, 25 mM Tris-HCl pH 8.0, 150 mM NaCl; IpaH7.8 (200 μM) injected into GSDMB (10 μM), or IpaH7.8 (625 μM) into hGSDMD or mGSDMD (40 μM); 25 injections; one-site binding model. (Isothermal titration calorimetry measures the heat released or taken up as one component is titrated into another.)

Data set [2] deals with the molecule itself. As to the kind of experiment: cryo-EM structure; GSDMB isoform 1 cleaved by 3C protease on liposomes, pores solubilised with C12E8 and purified on Superose 6; C24 symmetry, 4.96 Å (globular domain 4.48 Å).
Data set [3] concerns the target B3. As to the kind of experiment: cryo-EM structure; GSDMB-IpaH7.8 complex co-expressed in E. coli and co-purified, 0.5 mg/ml, 25 mM HEPES pH 7.5, 150 mM NaCl; 3.8 Å. The note with it: both partners purified.
In data set [4] the target is T1, human GSDMD, full length (human), P57764.
T1 chain: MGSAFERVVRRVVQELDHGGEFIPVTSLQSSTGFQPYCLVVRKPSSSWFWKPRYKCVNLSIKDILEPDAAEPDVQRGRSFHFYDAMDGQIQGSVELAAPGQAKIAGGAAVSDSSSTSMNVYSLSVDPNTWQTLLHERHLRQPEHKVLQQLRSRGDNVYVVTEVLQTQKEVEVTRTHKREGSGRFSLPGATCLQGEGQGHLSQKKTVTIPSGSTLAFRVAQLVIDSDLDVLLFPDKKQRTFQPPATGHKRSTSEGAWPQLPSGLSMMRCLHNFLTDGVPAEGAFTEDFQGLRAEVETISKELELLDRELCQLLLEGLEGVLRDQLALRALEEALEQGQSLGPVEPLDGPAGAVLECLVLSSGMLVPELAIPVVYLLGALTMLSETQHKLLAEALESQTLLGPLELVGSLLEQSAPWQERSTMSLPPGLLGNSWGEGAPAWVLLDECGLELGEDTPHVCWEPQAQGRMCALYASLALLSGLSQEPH
As to the kind of experiment: ITC; VP-ITC, 20 °C, 25 mM Tris-HCl pH 8.0, 150 mM NaCl; IpaH7.8 (200 μM) injected into GSDMB (10 μM), or IpaH7.8 (625 μM) into hGSDMD or mGSDMD (40 μM); 25 injections; one-site binding model. Particulars: remark: other sources report otherwise.

Data set [5] addresses B2. As to the kind of experiment: cryo-EM structure; GSDMB-IpaH7.8 complex co-expressed in E. coli and co-purified, 0.5 mg/ml, 25 mM HEPES pH 7.5, 150 mM NaCl; 3.8 Å. Particulars: both partners purified.

As to “Shigella flexneri IpaH7.8 (wild type), C-terminal 6XHis construct (from UniProt P18014 1-565) (enzyme)”, the Kd in data set [1] is 0.44 µM.

B1: GSDMB isoform 1 pore subunit (N-terminal domain after 3C protease cleavage) (domain or fragment)
chain: MFSVFEEITRIVVKEMDAGGDMIAVRSLVDADRFRCFHLVGEKRTFFGCRHYTTGLTLMDILDTDGDKWLDELDSGLQGQKAEFQILDNVDSTGELIVRLPKEITISGSFQGFHHQKIKISENRISQQYLATLENRKLKRELPFSFRSINTRENLYLVTETLETVKEETLKSDRQYKFWSQISQGHLSYKHKGQREVTIPPNRVLSYRVKQLVFPNKETMSAGLDIHFRGKTKSFPEGKLEVLFQ
notes: human gasdermin B isoform 1 (Q8TAX9-1), from the start to K239, after which the 3C site was inserted; what is left of the 3C protease site (LEVLFQ/GP) after cleavage; Pores were 24-26-fold symmetric; GSDMB-C was removed by size exclusion; also called GSDMB pore; GSDMB prepore; source: E. coli BL21 (DE3), purified; cleaved by 3C protease on liposomes, pores extracted with C12E8 and purified on …
In the case of B1, the “stoichiometry N” value in data set [2] stood at 24.
Regarding B2, in data set [3], the binding result was “binds”.
Molecule B3 had a Kd in data set [4] of 20.4 µM. Besides, the “stoichiometry N” value in data set [5] stood at 1.
